The assay addresses freshly isolated human LDL (human). The assay can be described thus: ELISA. Background: ELISA stands for enzyme-linked immunosorbent assay.

Consider one molecule from publication doi:10.1101/2021.09.12.459413.

By Kd is commonly meant the concentration at which binding is half-saturated.

B1: rabbit SAMD1 fragment from a.a. 238 to the C-terminus end at a.a. 550 (domain or fragment)
chain: QQPQPPPEGGAARAGGPARPVSLREVVRYLGGSSGAGGRLTRGRVQGLLEEEAAARGRLERTRLGALALPRGDRPGRAPPAASARAARNKRAGEERVLEKEEEEEEEEDDEDDDDDVVSEGSEVPESDRPAGAQHHQLNGGERGPQTAKERAKEWSLCGPHPGQEEGRGPAAGSGTRQVFSMAALSKEGGSASSTTGPDSPSPVPLPPGKPALPGADGTPFGCPAGRKEKPADPVEWTVMDVVEYFTEAGFPEQATAFQEQEIDGKSLLLMQRTDVLTGLSIRLGPALKIYEHHIKVLQQGHFEDDDPEGFLG
B1 displayed a Kd of 15 nM.
